Experimental data published in PMC11487180, “PAK6 rescues pathogenic LRRK2-mediated ciliogenesis and centrosomal cohesion defects in a mutation-specific manner” (Cell Death & Disease, 2024).

Target: T1, AK7 (human, UniProt Q96M32 1-723)
T1 construct: AK7, human, recombinant protein on the HuProt array; source: bought: HuProt Human Proteome Microarray v4.0, Cambridge Protein Arrays (recombinant protein spotted on the array)
Experiment: peptide or protein array; HuProt Human Proteome Microarray v4.0 (GST proteins spotted) incubated with recombinant PAK6 in 2% BSA, PBS, 0.05% Tween20 for 2 h at RT; detected with anti-PAK6 and fluorophore conjugated secondary antibody; hits by Z score > 2.5
Settings: both partners purified

T1 sequence (Q96M32 whole entry): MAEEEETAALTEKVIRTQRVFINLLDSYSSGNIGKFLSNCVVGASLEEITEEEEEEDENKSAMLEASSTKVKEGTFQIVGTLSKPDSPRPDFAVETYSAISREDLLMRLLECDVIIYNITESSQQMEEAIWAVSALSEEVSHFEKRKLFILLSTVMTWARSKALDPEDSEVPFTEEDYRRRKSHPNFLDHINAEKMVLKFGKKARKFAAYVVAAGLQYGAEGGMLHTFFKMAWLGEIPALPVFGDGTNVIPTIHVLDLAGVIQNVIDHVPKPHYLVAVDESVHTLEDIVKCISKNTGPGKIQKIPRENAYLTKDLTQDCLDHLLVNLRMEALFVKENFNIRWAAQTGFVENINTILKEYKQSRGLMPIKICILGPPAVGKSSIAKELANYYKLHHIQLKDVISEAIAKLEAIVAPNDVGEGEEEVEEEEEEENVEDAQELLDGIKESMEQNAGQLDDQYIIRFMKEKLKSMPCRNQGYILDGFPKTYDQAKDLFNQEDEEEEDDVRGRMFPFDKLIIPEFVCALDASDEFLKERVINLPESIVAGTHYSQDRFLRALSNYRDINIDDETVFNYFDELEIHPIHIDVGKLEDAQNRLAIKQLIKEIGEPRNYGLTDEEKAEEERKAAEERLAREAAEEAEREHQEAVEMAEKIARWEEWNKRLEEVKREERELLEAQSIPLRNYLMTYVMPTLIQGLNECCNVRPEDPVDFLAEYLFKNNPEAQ

B1: Recombinant full-length human PAK6 (ThermoFisher, #PR5307A) (enzyme, UniProt Q9NQU5 1-681, looked up)
chain: MFRKKKKKRPEISAPQNFQHRVHTSFDPKEGKFVGLPPQWQNILDTLRRPKPVVDPSRITRVQLQPMKTVVRGSAMPVDGYISGLLNDIQKLSVISSNTLRGRSPTSRRRAQSLGLLGDEHWATDPDMYLQSPQSERTDPHGLYLSCNGGTPAGHKQMPWPEPQSPRVLPNGLAAKAQSLGPAEFQGASQRCLQLGACLQSSPPGASPPTGTNRHGMKAAKHGSEEARPQSCLVGSATGRPGGEGSPSPKTRESSLKRRLFRSMFLSTAATAPPSSSKPGPPPQSKPNSSFRPPQKDNPPSLVAKAQSLPSDQPVGTFSPLTTSDTSSPQKSLRTAPATGQLPGRSSPAGSPRTWHAQISTSNLYLPQDPTVAKGALAGEDTGVVTHEQFKAALRMVVDQGDPRLLLDSYVKIGEGSTGIVCLAREKHSGRQVAVKMMDLRKQQRRELLFNEVVIMRDYQHFNVVEMYKSYLVGEELWVLMEFLQGGALTDIVSQVRLNEEQIATVCEAVLQALAYLHAQGVIHRDIKSDSILLTLDGRVKLSDFGFCAQISKDVPKRKSLVGTPYWMAPEVISRSLYATEVDIWSLGIMVIEMVDGEPPYFSDSPVQAMKRLRDSPPPKLKNSHKVSPVLRDFLERMLVRDPQERATAQELLDHPFLLQTGLPECLVPLIQLYRKQTSTC
notes: source: bought: ThermoFisher, #PR5307A
  binding result: binds
